Read-outs that look alike come from different tables or passages of the source.
Experiments:
[1] = biological target: T1, dog GLP1R (Canis lupus familiaris, UniProt A0A8I3NUR9); assay: In vitro potency, dog GLP1R activation (receptor-mediated cAMP synthesis); format: cell-based; settings: Table 12
T1 sequence (A0A8I3NUR9 1-464): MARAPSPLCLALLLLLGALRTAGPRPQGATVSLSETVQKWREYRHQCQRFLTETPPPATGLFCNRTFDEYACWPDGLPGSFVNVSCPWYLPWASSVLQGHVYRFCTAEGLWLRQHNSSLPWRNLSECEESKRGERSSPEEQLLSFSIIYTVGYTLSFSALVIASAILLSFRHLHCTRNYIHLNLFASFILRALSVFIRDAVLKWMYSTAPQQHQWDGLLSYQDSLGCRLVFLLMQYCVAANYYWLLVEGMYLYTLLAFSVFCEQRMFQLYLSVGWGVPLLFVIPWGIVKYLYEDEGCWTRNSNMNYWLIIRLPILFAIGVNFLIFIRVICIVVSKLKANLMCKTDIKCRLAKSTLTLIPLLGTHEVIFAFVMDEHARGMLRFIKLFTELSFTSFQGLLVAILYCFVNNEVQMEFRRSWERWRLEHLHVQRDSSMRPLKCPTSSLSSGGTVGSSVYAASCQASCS
Procedure: (§1) GLP-1R-CRE or HEK293-GIPR-CRE cells were seeded in 384-well plates at a density of 5000 cells per well and cultured for 18 h in DMEM with 10% FBS at 37° C. and 5% CO2. Cells were treated with peptides in a dose dependent manner for 24 h, and receptor activation was reported by luminescence intensities, using One-Glo (Promega, WI) luciferase reagent following manufacturer's instruction. The EC50 of each peptide was determined using GraphPad Prism 6 software (GraphPad, San Diego, CA). Results are depicted in FIGS. 6A-6B, FIGS. 7A-7B, FIGS. 8A-8B, FIGS. 9A-9B, and Tables 7-12. Measurements of peptide conjugate potency were expressed as half maximal effective concentration (EC50) values.

[2] = biological target: T2, human GIPR (Homo sapiens, UniProt P48546); assay: In vitro receptor activation reporter assay (CRE-Luc, HEK293-GIPR-CRE cells; receptor-mediated cAMP synthesis); format: cell-based
T2 construct: expressed in transfected cells; host or cells: HEK293 (CRE-HEK293, HEK293-GIPR-CRE)
T2 sequence (P48546 22-466): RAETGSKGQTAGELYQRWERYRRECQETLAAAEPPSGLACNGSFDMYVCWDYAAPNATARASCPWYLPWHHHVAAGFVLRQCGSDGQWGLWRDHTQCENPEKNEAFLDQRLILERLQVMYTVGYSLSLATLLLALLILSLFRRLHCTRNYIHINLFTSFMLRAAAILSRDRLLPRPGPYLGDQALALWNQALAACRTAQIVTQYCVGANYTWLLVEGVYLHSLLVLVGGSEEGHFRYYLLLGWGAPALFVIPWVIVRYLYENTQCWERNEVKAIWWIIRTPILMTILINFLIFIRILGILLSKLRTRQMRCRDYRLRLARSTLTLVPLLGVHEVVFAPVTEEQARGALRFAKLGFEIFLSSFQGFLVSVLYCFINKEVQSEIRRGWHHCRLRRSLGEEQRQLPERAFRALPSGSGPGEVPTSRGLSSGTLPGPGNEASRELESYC

[3] = Pharmacokinetics in CD-1 mouse, I.V. or S.C. 1 mg/kg, plasma concentration by LC-MS; settings: for AUC(0-inf): AUCINF; for MRT last: MRTLAST; for half-life: T1/2, Table 14;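 for all read-outs here: peptide levels in plasma quantified by LC-MS across multiple sampling times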
Procedure: The peptide plasma concentration at various time points was determined using LC-MS.

[4] = in vivo; settings: cynomolgus monkey
[5] = biological target: human GLP-1R (Homo sapiens, UniProt P43220); assay: In vitro receptor activation reporter assay (CRE-Luc, HEK293-GLP-1R-CRE cells; receptor-mediated cAMP synthesis); format: cell-based; set-up: expressed in transfected cells; host or cells: HEK293 (CRE-HEK293, HEK293-GLP-1R-CRE)
human GLP-1R, sequence (P43220 24-463): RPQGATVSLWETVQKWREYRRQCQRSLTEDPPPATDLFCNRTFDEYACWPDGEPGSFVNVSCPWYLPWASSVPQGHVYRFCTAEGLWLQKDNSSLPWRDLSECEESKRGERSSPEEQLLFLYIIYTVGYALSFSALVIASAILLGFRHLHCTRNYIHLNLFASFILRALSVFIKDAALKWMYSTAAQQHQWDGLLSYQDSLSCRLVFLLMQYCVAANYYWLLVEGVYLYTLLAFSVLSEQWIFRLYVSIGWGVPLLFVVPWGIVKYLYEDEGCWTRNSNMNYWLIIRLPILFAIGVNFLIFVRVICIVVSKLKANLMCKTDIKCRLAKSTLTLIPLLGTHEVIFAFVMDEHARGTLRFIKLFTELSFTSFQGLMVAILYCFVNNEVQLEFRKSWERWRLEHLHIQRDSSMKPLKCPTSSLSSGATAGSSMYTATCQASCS
Procedure: HEK293 cells were infected with lentivirus encoding firefly luciferase gene under the control of cAMP responsive element (CRE) promoter (Qiagen, The Netherlands) and then were selected using 1 μg mL^−1 puromycin (Life Technologies, Carlsbad) for 1 week. The surviving cells (referred to as CRE-HEK293) were expanded and then transfected with a G418 selective mammalian expression plasmid encoding human GLP-1R or GIPR. In brief, GLP-1R or GIPR plasmid was transfected into CRE-HEK293 cells using Lipofectamine 2000 and selected with 400 μg mL^−1 Geneticin (Life Technologies, Carlsbad, CA). Single colony stable cell line overexpressing CRE-luciferase and GLP-1R or GIPR (HEK293-GLP-1R-CRE or HEK293-GIPR-CRE) was then established for in vitro activity assay.
HEK293 cells were infected with lentivirus encoding firefly luciferase gene under the control of cAMP responsive element (CRE) promoter (Qiagen, The Netherlands) and then were selected using 1 μg/mL puromycin (Life Technologies, Carlsbad) for 1 week. The surviving cells (referred to as CRE-HEK293) were expanded and then transfected with a G418 selective mammalian expression plasmid encoding human GLP-1R. In brief, GLP-1R plasmid was transfected into CRE-HEK293 cells using Lipofectamine 2000 and selected with 400 μg/mL Geneticin (Life Technologies, Carlsbad, CA). Single colony stable cell line overexpressing CRE-luciferase and GLP1R was then established for in vitro activity assay.

[6] = biological target: T3, mouse GLP1R (Mus musculus, UniProt O35659); assay: In vitro potency, mouse GLP1R activation (receptor-mediated cAMP synthesis); format: cell-based; settings: Table 12
T3 sequence (O35659 22-463): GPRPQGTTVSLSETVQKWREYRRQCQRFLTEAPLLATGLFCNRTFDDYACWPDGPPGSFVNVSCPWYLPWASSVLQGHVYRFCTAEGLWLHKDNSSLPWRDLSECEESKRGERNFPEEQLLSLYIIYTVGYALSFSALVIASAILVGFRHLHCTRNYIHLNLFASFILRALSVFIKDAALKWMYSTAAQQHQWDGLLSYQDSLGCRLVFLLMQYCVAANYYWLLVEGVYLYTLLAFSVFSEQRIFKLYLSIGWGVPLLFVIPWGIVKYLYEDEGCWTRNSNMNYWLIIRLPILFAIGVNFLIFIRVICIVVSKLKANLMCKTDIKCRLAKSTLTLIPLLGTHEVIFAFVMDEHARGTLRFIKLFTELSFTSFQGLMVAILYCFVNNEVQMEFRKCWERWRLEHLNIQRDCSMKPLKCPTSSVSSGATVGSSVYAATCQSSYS
Procedure: as §1

[7] = mouse, in vivo, iv, 1 mg/kg, Table 14, IV 1 mg/kg
[8] = mouse, in vivo, sc, 1 mg/kg, Table 14, SC 1 mg/kg

With `CC[C@H](C)[C@H](NC(=O)[C@H](CC(C)C)NC(=O)[C@H](Cc1c[nH]c2ccccc12)NC(=O)[C@@H]1CSCC(=O)NCCN(C(=O)CCC(=O)NCCOCCOCCC(=O)NCCOCCOCCC(=O)NCCCC[C@H](NC(=O)CCCCCCCCCCCCCCCCCCC(=O)O)C(=O)O)CCNC(=O)CSC[C@H](NC(=O)[C@H](CCCCN)NC(=O)[C@H](CC(=O)O)NC(=O)[C@H](CC(C)C)NC(=O)[C@H](Cc2ccc(O)cc2)NC(=O)[C@@H](NC(=O)[C@H](CO)NC(=O)[C@H](Cc2ccc(O)cc2)NC(=O)[C@H](CC(=O)O)NC(=O)[C@H](CO)NC(=O)[C@@H](NC(=O)[C@H](Cc2ccccc2)NC(=O)[C@@H](NC(=O)CNC(=O)[C@H](CCC(=O)O)NC(=O)C(C)(C)NC(=O)[C@@H](N)Cc2ccc(O)cc2)[C@@H](C)O)[C@@H](C)O)[C@@H](C)CC)C(=O)N[C@@H](C)C(=O)N[C@@H](C)C(=O)NC(C)(C)C(=O)N[C@@H](CCC(=O)O)C(=O)N[C@@H](Cc2ccccc2)C(=O)N[C@@H](C(C)C)C(=O)N1)C(=O)N[C@@H](C)C(=O)NCC(=O)NCC(=O)N1CCC[C@H]1C(=O)N[C@@H](CO)C(=O)N[C@@H](CO)C(=O)NCC(=O)N[C@@H](C)C(=O)N1CCC[C@H]1C(=O)N1CCC[C@H]1C(=O)N1CCC[C@H]1C(=O)N[C@@H](CO)C(N)=O` [mCMV268] as the molecule, how does the EC50 [1] read?
Its EC50 is 1.48 nM.

And the EC50 ([2]; In Vitro Potency GIPR EC50, 10% FBS, Table 11, human, 10% FBS)?
The EC50 was 0.09 ± 0.02 nM.

What about the EC50 ([2]; Table 11, human, No Serum, read-out: In Vitro Potency GIPR EC50, No Serum) of the same molecule?
Its EC50 is 0.01 ± 0.01 nM.

And the EC50 ([2]; unnumbered table, average of runs, read-out: EC50 GIPR average)?
The EC50 was 0.04 nM.

And the EC50 ([2]; unnumbered table, run 02/19, read-out: EC50 GIPR 02/19)?
The EC50 was 0.05 nM.

And the EC50 ([2]; unnumbered table, run 03/25, read-out: EC50 GIPR 03/25)?
The EC50 was 0.04 nM.

What about the EC50 ([2]; unnumbered table, run 03/26, read-out: EC50 GIPR 03/26) of the same molecule?
Its EC50 is 0.03 nM.

What about the bioavailability ([3]; CD-1, mouse, plasma, sc, 1 mg/kg) of the same molecule?
The bioavailability was 64%.

What about the Cl ([3]; Table 14, SC 1 mg/kg) of the same molecule?
The Cl was 4.8 mL/h/kg.

What about the Vd ([3]; Table 14, SC 1 mg/kg) of the same molecule?
Its Vd is 0.087 L/kg.

What about the clearance ([3]; mouse, in vivo, iv, 1 mg/kg) of the same molecule?
The clearance was 3 mL/h/kg.

What about the AUC(0-t) ([3]; mouse, in vivo, iv, 1 mg/kg, AUC0-24, Table 14, IV 1 mg/kg) of the same molecule?
Its AUC(0-t) is 204 µg·h/mL.

And the AUC(0-inf) [3, 7]?
Its AUC(0-inf) is 327 µg·h/mL.

And the AUC(0-t) ([3]; mouse, in vivo, iv, 1 mg/kg, AUCLAST, Table 14, IV 1 mg/kg)?
The AUC(0-t) was 315 µg·h/mL.

What about the Cmax [3, 7] of the same molecule?
The Cmax was 34 µg/mL.

What about the MRT last [3, 7] of the same molecule?
Its MRT last is 19.5 h.

And the half-life ([3]; mouse, in vivo, iv, 1 mg/kg, IV 1 mg/kg)?
Its half-life is 14.8 h.

And the Tmax [3, 7]?
Its Tmax is 0.5 h.

What about the Vd ([3]; mouse, in vivo, iv, 1 mg/kg, Vd, Table 14, IV 1 mg/kg) of the same molecule?
The Vd was 0.067 L/kg.

And the AUC(0-t) ([3]; mouse, in vivo, sc, 1 mg/kg, AUC0-24, Table 14, SC 1 mg/kg)?
The AUC(0-t) was 92.1 µg·h/mL.

And the AUC(0-inf) [3, 8]?
Its AUC(0-inf) is 208 µg·h/mL.

What about the AUC(0-t) ([3]; mouse, in vivo, sc, 1 mg/kg, AUCLAST, Table 14, SC 1 mg/kg) of the same molecule?
The AUC(0-t) was 200 µg·h/mL.

What about the Cmax [3, 8] of the same molecule?
Its Cmax is 4.78 µg/mL.

And the MRT last [3, 8]?
Its MRT last is 27.8 h.

And the half-life ([3]; mouse, in vivo, sc, 1 mg/kg, SC 1 mg/kg)?
Its half-life is 12.8 h.

What about the Tmax [3, 8] of the same molecule?
The Tmax was 24 h.

And the T last ([4]; iv)?
The T last was 504 h.

What about the Vd ([4]; iv) of the same molecule?
The Vd was 0.0612 L/kg.

What about the clearance ([4]; iv) of the same molecule?
Its clearance is 0.84 mL/h/kg.

What about the half-life ([4]; iv) of the same molecule?
The half-life was 58.8 h.

And the AUC(0-t) ([4]; sc)?
Its AUC(0-t) is 438 µg·h/mL.

And the Cmax ([4]; sc)?
Its Cmax is 3.93 µg/mL.

And the T last ([4]; sc)?
The T last was 504 h.

What about the Tmax ([4]; sc) of the same molecule?
The Tmax was 14.7 h.

What about the bioavailability ([4]; sc) of the same molecule?
Its bioavailability is 73.7%.

What about the half-life ([4]; sc) of the same molecule?
Its half-life is 60.5 h.

And the EC50 ([5]; In Vitro Potency GLPIR EC50, 10% FBS, Table 11, human, 10% FBS)?
The EC50 was 1.96 ± 0.46 nM.

And the EC50 ([5]; unnumbered table, average of runs, read-out: EC50 GLP1R average)?
The EC50 was 0.03 nM.

What about the EC50 ([5]; unnumbered table, run 02/19, read-out: EC50 GLP1R 02/19) of the same molecule?
The EC50 was 0.02 nM.

And the EC50 ([5]; unnumbered table, run 3/25, read-out: EC50 GLP1R 3/25)?
The EC50 was 0.03 nM.

What about the EC50 ([5]; unnumbered table, run 03/26, read-out: EC50 GLP1R 03/26) of the same molecule?
Its EC50 is 0.03 nM.

What about the EC50 [6] of the same molecule?
The EC50 was 0.26 nM.
